# Data taken from publication doi:10.1101/2025.09.17.676191 (bioRxiv, 2025).
# Target: the molecule itself
# Experiment: cryo-EM structure
protein,measurement,value
"wild-type mouse TRPV3 channel (natural protein, UniProt Q8K424 1-791, looked up) MNAHSKEMAPLMGKRTTAPGGNPVVLTEKRPADLTPTKKSAHFFLEIEGFEPNPTVTKTSPPIFSKPMDSNIRQCLSGNCDDMDSPQSPQDDVTETPSNPNSPSANLAKEEQRQKKKRLKKRIFAAVSEGCVEELRELLQDLQDLCRRRRGLDVPDFLMHKLTASDTGKTCLMKALLNINPNTKEIVRILLAFAEENDILDRFINAEYTEEAYEGQTALNIAIERRQGDITAVLIAAGADVNAHAKGVFFNPKYQHEGFYFGETPLALAACTNQPEIVQLLMENEQTDITSQDSRGNNILHALVTVAEDFKTQNDFVKRMYDMILLRSGNWELETMRNNDGLTPLQLAAKMGKAEILKYILSREIKEKPLRSLSRKFTDWAYGPVSSSLYDLTNVDTTTDNSVLEIIVYNTNIDNRHEMLTLEPLHTLLHTKWKKFAKYMFFLSFCFYFFYNITLTLVSYYRPREDEDLPHPLALTHKMSWLQLLGRMFVLIWATCISVKEGIAIFLLRPSDLQSILSDAWFHFVFFVQAVLVILSVFLYLFAYKEYLACLVLAMALGWANMLYYTRGFQSMGMYSVMIQKVILHDVLKFLFVYILFLLGFGVALASLIEKCSKDKKDCSSYGSFSDAVLELFKLTIGLGDLNIQQNSTYPILFLFLLITYVILTFVLLLNMLIALMGETVENVSKESERIWRLQRARTILEFEKMLPEWLRSRFRMGELCKVADEDFRLCLRINEVKWTEWKTHVSFLNEDPGPIRRTADLNKIQDSSRSNSKTTLYAFDELDEFPETSV",stoichiometry N,4
